Test results published in the supplement of paper PMC6757056.
± gives the standard deviation of the averaged measurements.

B1: library; a variant is named by its letters at N, in order (parent)
chain: GCUGUCACCGAGAAACUGUGAAGUAUAUCUUAAACCUGGGCACUUAAAAGAUAUAUGGAGUUAGUAGUGCAACCUGCUCGGUCUGAUGAGUCCNNNNNNGGACGAAACAGC

Assays:
cyclic di-GMP [1] = variants of: B1; assay: FACS-Seq fitted mean relative fluorescence mCherry/BFP without ligand (log10 relative fluorescence); HEK293T; ligand: cyclic di-GMP (c-di-GMP-II aptamer); higher = higher reporter protein expression; conditions: ligand present: no
Method in brief: (§1)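 HEK293T libraries were lentivirally transduced with an mCherry reporter carrying the ribozyme switch and an EF1α-BFP marker, enriched, and incubated for 48 h with or without ligand before sorting into 6 bins by mCherry/BFP. Genomic DNA from each bin was PCR-amplified, barcoded and sequenced on MiSeq. Fluorescence is the fitted normal mean of the bin counts. The fit used log10(mCherry/BFP), and means were scaled to five spiked-in control ribozymes.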

cyclic di-GMP [2] = variants of: B1; assay: normalized RNA/DNA level without ligand (relative to sTRSVctl = 100) (log10 (% of sTRSVctl)); HEK293T; ligand: cyclic di-GMP (c-di-GMP-II aptamer); higher = less ribozyme self-cleavage, higher mRNA level; conditions: reporter: mCherry (pCS4076), ligand present: no
Method in brief: (§2)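 RNA level was computed as RNA reads over DNA reads divided by a spiked-in non-cleaving sequence or by the top sequences, then scaled and log-transformed. Scaling was ×100 with log10, the top group was 25 sequences, and the threshold was ≥100 DNA reads. The reads came from HEK293T cells transfected at 4 µg per 6-well well with ribozyme switch library plasmids (mCherry, or eGFP in some ligand experiments). Total RNA was extracted with EDTA 72 h after transfection, with any ligand added 1 h before it.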

cyclic di-GMP [3] = variants of: B1; assay: FACS-Seq fitted mean relative fluorescence mCherry/BFP with ligand (log10 relative fluorescence); HEK293T; ligand: cyclic di-GMP (c-di-GMP-II aptamer); ligand concentration (+) FACS-Seq: 1 mM; higher = higher reporter protein expression; conditions: ligand present: yes
Method in brief: as §1

cyclic di-GMP [4] = variants of: B1; assay: normalized RNA/DNA level with ligand (relative to sTRSVctl = 100) (log10 (% of sTRSVctl)); HEK293T; ligand: cyclic di-GMP (c-di-GMP-II aptamer); ligand concentration (+) RNA-Seq: 1 mM; higher = less ribozyme self-cleavage, higher mRNA level; conditions: reporter: mCherry (pCS4076), ligand present: yes
Method in brief: as §2

Variant | FACS-Seq fitted mean (log10) (cyclic di-GMP [1]) | normalized RNA/DNA level without ligand (log10) (cyclic di-GMP [2]) | FACS-Seq fitted mean (log10) (cyclic di-GMP [3]) | normalized RNA/DNA level with ligand (log10) (cyclic di-GMP [4])
CUUAGC | -0.863 ± 0.058 | 1.79 ± 0.00046 | -0.484 ± 0.043 | 1.88 ± 0.11
AUGUUA | -0.342 ± 0.13 | 1.523 ± 0.0094 | -0.0703 ± 0.042 | 1.73 ± 0.1
GUGGAU | -0.528 ± 0.045 | 1.52 ± 0.093 | -0.192 ± 0.024 | 1.72 ± 0.072
GUGGAA | -0.382 ± 0.021 | 1.4 ± 0.087 | -0.0891 ± 0.076 | 1.63 ± 0.092
GUGGAC | -0.519 ± 0.08 | 1.55 ± 0.092 | -0.171 ± 0.053 | 1.75 ± 0.095
AUGCGA | -0.411 ± 0.064 | 1.49 ± 0.079 | -0.0888 ± 0.022 | 1.66 ± 0.13
AUGGUA | -0.519 ± 0.1 | 1.46 ± 0.066 | -0.143 ± 0.024 | 1.65 ± 0.098
AUGGUG | -0.341 ± 0.087 | 1.56 ± 0.1 | -0.113 ± 0.021 | 1.7 ± 0.094
UUGAUG | -0.5233 ± 0.005 | 1.547 ± 0.013 | -0.419 ± 0.053 | 1.75 ± 0.14
UUGUUC | -0.6418 ± 0.0047 | 1.75 ± 0.018 | -0.462 ± 0.0095 | 1.89 ± 0.1
UUUAAU | 0.192 ± 0.051 | 1.698 ± 0.015 | 0.405 ± 0.0074 | 1.84 ± 0.08
UUUAAC | 0.0586 ± 0.15 | 1.7 ± 0.022 | 0.264 ± 0.026 | 1.84 ± 0.099
UUGAAG | -0.189 ± 0.02 | 1.639 ± 0.0094 | 0.0171 ± 0.037 | 1.81 ± 0.12
UUGAAA | -0.168 ± 0.075 | 1.607 ± 0.0064 | -0.0658 ± 0.065 | 1.76 ± 0.14
GUUACU | -0.232 ± 0.064 | 1.75 ± 0.027 | 0.0991 ± 0.015 | 1.82 ± 0.13
CUGUCA | -0.00992 ± 0.023 | 1.52 ± 0.13 | 0.247 ± 0.011 | 1.68 ± 0.13
CUGCAA | -0.468 ± 0.049 | 1.36 ± 0.11 | -0.0644 ± 0.035 | 1.59 ± 0.097
AUGGAA | -0.588 ± 0.0092 | 1.33 ± 0.13 | -0.293 ± 0.033 | 1.53 ± 0.14
AUGGAU | -0.631 ± 0.017 | 1.51 ± 0.057 | -0.404 ± 0.012 | 1.67 ± 0.12
CUGAUG | -0.749 ± 0.029 | 1.39 ± 0.12 | -0.5264 ± 0.0006 | 1.58 ± 0.081
CUGAUA | -0.362 ± 0.04 | 1.27 ± 0.11 | -0.182 ± 0.1 | 1.5 ± 0.1
CUGAUU | -0.154 ± 0.084 | 1.505 ± 0.015 | 0.107 ± 0.18 | 1.71 ± 0.12
UUGGCU | -0.121 ± 0.069 | 1.789 ± 0.009 | 0.192 ± 0.12 | 1.88 ± 0.15
CUGCGG | 0.154 ± 0.06 | 1.82 ± 0.042 | 0.241 ± 0.03 | 1.84 ± 0.087

Variant | FACS-Seq fitted mean (log10) (cyclic di-GMP [1]) | normalized RNA/DNA level without ligand (log10) (cyclic di-GMP [2]) | FACS-Seq fitted mean (log10) (cyclic di-GMP [3]) | normalized RNA/DNA level with ligand (log10) (cyclic di-GMP [4])
CUGCGA | -0.33 ± 0.01 | 1.65 ± 0.024 | 0.0519 ± 0.0084 | 1.8 ± 0.095
UUGUAG | -0.163 ± 0.065 | 1.6682 ± 0.00036 | 0.112 ± 0.032 | 1.83 ± 0.14
UUGUAU | 0.0117 ± 0.057 | 1.66 ± 0.051 | 0.163 ± 0.013 | 1.82 ± 0.16
AUGUGU | -0.484 ± 0.16 | 1.53 ± 0.043 | -0.314 ± 0.021 | 1.77 ± 0.11
GUUAAG | -0.00319 ± 0.05 | 1.55 ± 0.05 | 0.189 ± 0.031 | 1.72 ± 0.098
GUUAAU | -0.336 ± 0.014 | 1.62 ± 0.041 | -0.0912 ± 0.025 | 1.77 ± 0.067
UUGGAA | -0.145 ± 0.025 | 1.61 ± 0.12 | 0.122 ± 0.11 | 1.78 ± 0.081
AUGCCA | -0.283 ± 0.032 | 1.704 ± 0.0062 | 0.176 ± 0.089 | 1.84 ± 0.08
GUGUGC | -0.9793 ± 0.0011 | 1.4 ± 0.12 | -0.724 ± 0.0079 | 1.63 ± 0.09
AUGUAC | -0.466 ± 0.057 | 1.6256 ± 0.0011 | -0.129 ± 0.17 | 1.79 ± 0.077
AUGUAU | -0.148 ± 0.067 | 1.61 ± 0.036 | 0.196 ± 0.014 | 1.82 ± 0.052
AUUACG | -0.439 ± 0.014 | 1.67 ± 0.032 | -0.0914 ± 0.065 | 1.83 ± 0.072
AUUAGC | -0.0321 ± 0.09 | 1.6567 ± 0.0015 | 0.226 ± 0.11 | 1.76 ± 0.16
GUGUUA | -0.147 ± 0.075 | 1.58 ± 0.027 | 0.207 ± 0.022 | 1.77 ± 0.092
GUGUUG | -0.394 ± 0.069 | 1.59 ± 0.068 | -0.183 ± 0.047 | 1.74 ± 0.12
GUGUUC | -0.72254 ± 0.00049 | 1.39 ± 0.14 | -0.527 ± 0.032 | 1.57 ± 0.14
CUGAAU | -0.0233 ± 0.075 | 1.43 ± 0.045 | 0.269 ± 0.11 | 1.61 ± 0.075
AUGAAC | -0.0137 ± 0.15 | 1.649 ± 0.0059 | 0.334 ± 0.026 | 1.79 ± 0.1
AUGAGU | -0.416 ± 0.026 | 1.54 ± 0.019 | -0.0836 ± 0.048 | 1.73 ± 0.14
AUGAGA | -0.299 ± 0.14 | 1.35 ± 0.12 | -0.147 ± 0.0049 | 1.54 ± 0.15
UUGCGU | -0.322 ± 0.017 | 1.69 ± 0.035 | -0.00149 ± 0.0032 | 1.86 ± 0.084
GUGGCC | 0.168 ± 0.017 | 1.86 ± 0.033 | 0.366 ± 0.0082 | 1.97 ± 0.047
AUGACU | -1.21 ± 0.091 | 1.71 ± 0.0041 | -0.93 ± 0.06 | 1.85 ± 0.11
GUGCAU | -0.575 ± 0.042 | 1.73 ± 0.028 | -0.302 ± 0.062 | 1.85 ± 0.18

Variant | FACS-Seq fitted mean (log10) (cyclic di-GMP [1]) | normalized RNA/DNA level without ligand (log10) (cyclic di-GMP [2]) | FACS-Seq fitted mean (log10) (cyclic di-GMP [3]) | normalized RNA/DNA level with ligand (log10) (cyclic di-GMP [4])
GUUAGA | -0.409 ± 0.02 | 1.51 ± 0.12 | -0.0172 ± 0.12 | 1.73 ± 0.11
AUGAUU | -0.57 ± 0.11 | 1.41 ± 0.17 | -0.0144 ± 0.094 | 1.62 ± 0.11
AUGAUG | -0.239 ± 0.054 | 1.6 ± 0.069 | 0.056 ± 0.078 | 1.77 ± 0.11
CUGUUA | -0.289 ± 0.046 | 1.33 ± 0.091 | 0.158 ± 0.13 | 1.58 ± 0.084
AUUAAA | -0.425 ± 0.11 | 1.53 ± 0.048 | -0.0171 ± 0.053 | 1.71 ± 0.12
CUGGAA | -0.647 ± 0.051 | 1.26 ± 0.1 | -0.397 ± 0.011 | 1.41 ± 0.06
GUGAUC | -0.464 ± 0.047 | 1.15 ± 0.17 | -0.114 ± 0.0038 | 1.27 ± 0.017
GUGAUU | -0.56 ± 0.007 | 1.621 ± 0.01 | -0.311 ± 0.025 | 1.79 ± 0.088
GUGAUG | -0.401 ± 0.17 | 1.54 ± 0.09 | -0.137 ± 0.01 | 1.73 ± 0.068
CUGAGU | -0.459 ± 0.047 | 1.7 ± 0.022 | -0.264 ± 0.00087 | 1.83 ± 0.12
GUGAGA | -0.476 ± 0.052 | 1.41 ± 0.058 | -0.164 ± 0.051 | 1.6 ± 0.089
AUGGGU | -0.563 ± 0.083 | 1.54 ± 0.072 | -0.3945 ± 0.00061 | 1.74 ± 0.07
UUGACA | -0.91 ± 0.064 | 1.701 ± 0.0052 | -0.508 ± 0.077 | 1.83 ± 0.14
CUUACA | -0.457 ± 0.02 | 1.55 ± 0.067 | -0.154 ± 0.088 | 1.72 ± 0.077
GUGCCG | -0.423 ± 0.023 | 1.828 ± 0.017 | -0.15 ± 0.011 | 1.92 ± 0.11
CUUAAA | -0.598 ± 0.053 | 1.37 ± 0.072 | -0.238 ± 0.21 | 1.53 ± 0.16
CUUAAU | -0.0367 ± 0.24 | 1.55 ± 0.096 | 0.142 ± 0.073 | 1.71 ± 0.1
GUGGUG | -0.455 ± 0.011 | 1.69 ± 0.036 | -0.117 ± 0.042 | 1.83 ± 0.12
GUGGUC | -0.682 ± 0.026 | 1.25 ± 0.077 | -0.386 ± 0.015 | 1.46 ± 0.099
GUGGUA | -0.522 ± 0.03 | 1.58 ± 0.059 | -0.23 ± 0.015 | 1.72 ± 0.08
GUGAAG | -0.453 ± 0.027 | 1.5 ± 0.067 | -0.278 ± 0.08 | 1.66 ± 0.064
GUGAAU | -0.688 ± 0.083 | 1.57 ± 0.07 | -0.318 ± 0.04 | 1.75 ± 0.12
GUGAAA | -0.574 ± 0.012 | 1.41 ± 0.17 | -0.227 ± 0.085 | 1.62 ± 0.059
CUGUAU | -0.00585 ± 0.097 | 1.56 ± 0.039 | 0.2727 ± 0.0019 | 1.72 ± 0.07
